Assay: soluble on expression in E. coli; label from the status in PepcDB or PDB records

Sequence | soluble on expression in E. coli
MKGFQFKVIQEKLQGRQFINSDKIKPDHPQTIIKKTLLKEYQSKNFSCQEERDLFLEFTEKIVQNFHNINFNYLLKKFCKLPENYQSLKSQVKQIVQSENKANQQSCENLFNSLYDTEISYKQITNFLRQIIQNCVPNQLLGKKNFKVFLEKLYEFVQMKRFENQKVLDYICFMDVFDVEWFVDLKNQKFTQKRKYISDKRKILGDLIVFIINKIVIPVLRYNFYITEKHKEGSQIFYYRKPIWKLVSKLTIVKLEEENLEKVEEKL | soluble
MRIDILTLFPGMFSGVLSESILKKAQEKGAVDIRLIDFREFADNKHKTVDDYPYGGGAGMVLKPQPIFDAVEHVTAGSPGARIILLCPQGERYTQKKAEELAKETHLVLICGHYEGYDERIRQYLATDEISIGDYILTGGELGAMVIVDSVVRLLPGVLGNEASPVDDSFSSGLLEYPQYTRPADFRGMKVPDILLSGNHQLIAEWREKESLRRTFLRRPDLLDEYPLTDKQKQWLKEWEKERE | soluble
SLKPSRPVETAYLQGQPGTPFPVIRGIGWSEDQGRRPDMEDGMVAISNLAGVANAWLLGIYDGHGGRQMVEMLLQKIHGNVLQHLRSRAIERWQRYRQRAMSRLQDIRRRLDELHFQQQLACRDVRVLMPPTQRLVELLRLGRICEWVLQCEEPSQEGRTETEKSSASKAPTPPSFLTICTEEDVHRALDEAFVQTDVEILQRLTHPSDHKAGCERDARRVESLGGWVFGERVNGMLAIGRAFGDWSLKLPPGKANPPYSPTSGAFDRLLNIFGTSPSHAAEQAAAERKEYVVSNAPDVRSVSLTPERPAQVPGGIRRNSPSSRASESQTAMSGQETGAGRVPGLLVLGCDGLFDVCSDQVVAHLALEFLRQLVAVHPDMSPCEAAKATARMLIEEAIGVRGSTDNVSVMVVLFHSFGFSGRDGVTPSPPTWYAAAAAKFAWLAEGVSRNVFGLPTASPIALPREPEDKTVD | not soluble
MGSDKIHHHHHHMRISLSTGTLFTFPLGKVMAIARDAGFDGVELIVNQDFQKVNCRTLIRELAEILPIHSMHAPFMPLDGWGSSIDSLKRCVELSADCGVQLVNFHPPSWMGFELGFWRWLYRVMDFQKEVGQGGVIVTLENMPWVGKRVRMNPHILSSTTKFIDFIQERNLFMTFDTTHMGSGKANFINDFYLCYNSGRIRNIHFSDYGHGREHLLPGHGILPLTRFLNHLRSTGYNDTLTLELSPEEFPRDERIIVESLREILSYLRKETEHPIP | not soluble
MEYFMSGKSIFDKLWDRHVITGDEGQPQLMYVDQHYIHEVTSPQAFQGLRDAGRKVRRPDLTFGTFDHNVPTVNIFDIRDAISKAQIDKLAENVIEFGIDNASHGSDKQGIVHMVGPETGRTQPGKFIVCGDSHTATHGAFGTIAFGIGTSEVEHVFATQTLWQVKPKK | not soluble
MTQKRTLLKYGILSLALAAPLSACAFDSLTVIGDSLSDTGNNGRWTWDSGQNKLYDEQLAERYGLELSPSSNGGSNYAAGGATATPELNPQDNTADQVRQWLAKTGGKADHNGLYIHWVGGNDLAAAIAQPTMAQQIAGNSATSAAAQVGLLLDAGAGLVVVPNVPDISATPMLLEAVITAGLGAAAPPALKAALDALAEGATPDFASRQQAIRKALLAAAATVSSNPFIQQLLVEQLLAGYEAAAGQASALTDYYNQMEEKGLEQHGGNIARADINGLFKEILANPQAFGLTNTVGMACPPGVSASACSSAMPGFNASQDYLFADHLHPGPQVHTIIAQYIQSIIAAPVQATYLNQSVQSMAQGSRTTLDSRYQQLRQGENPVGSLGMFGGYSGGYQRYDNNEADGNGNHNNLTVGVDYQLNEQVLLGGLIAGSLDKQHPDDNYRYDARGFQAAVFSHLRAGQAWLDSDLHFLSAKFSNIQRSITLGALRRVEEGETNGRLWGARLTSGYDFVMVPWLTTGPMLQYAWDYSHVNGYSEKLNTSTSMRFGDQNAHSQVGSAGWRLDLRHSIIHSWAQINYRRQFGDDTYVANGGLKSTALTFSRDGKTQDKNWVDIAIGADFPLSATVSAFAGLSQTAGLSDGNQTRYNVGFSARF | not soluble
MSLLFSNTYRIESNAPLADKLRPKNLDDFFGQESILGHDSLLRNAILNDKVGNMIFSGPPGVGKTTLIEIISSNTRSSLIKLNAVLSSIKELRTEIANAKERLRSSNRKTILFIDEVHRFTSVQQDALLPSIENGTITFIGATTENPFFAVNKALISRARIFSLLPLNKNDLKKIIDKVIKYYSCLKDSKVVEIKEEAMNHLIKFSGGDARNLINALELGISITKENKENLVVIDLAIAEDSIQKKNIVYDKNGQNHFDVISAFIKSIRGSDPDATLYWLANMVEAGEDPNFIFRRLLISACEDIGLADPNAIVVVQSCCDAFDRVGFPEGLFFLSQASLYLAISPKSNSTKSIFKAMEAIKATNVSLVPNHLKNNASNYLNPHNYQGKWLQQEYLPTDLQGIKFWKPKDSGWEKNKYEDLPKKQKSEGHHHHHH | not soluble
AGHRGQCVGRHREVVAIDNSKATNPHAADSALAGFSSVVWVAGGQLKGAEIDELIVRHAGRIKAVALLGVDRDVIEDSVRTHIPGIPVLSVSETDPRRAMDEAVAWSVSQAEAGDAIVLAPAAASLDMYTGMGQRGDMFATAI | not soluble
MASMTGGNNMGRGSMGAMDQEIGTVTDTKMDPRDFLQLLKINAEKAEKNLPLDQKRAGMEALCERFPRAEGVELTLTDLGGVPCIRQATDGAGAAHILYFHGGGYISGSPSTHLVLTTQLAKQSSATLWSLDYRLAPENPFPAAVDDCVAAYRALLKTAGSADRIIIAGDSAGGGLTTASMLKAKEDGLPMPAGLVMLSPFVDLTLSRWSNSNLADRDFLAEPDTLGEMSELYVGGEDRKNPLISPVYADLSGLPEMLIHVGSEEALLSDSTTLAERAGAAGVSVELKIWPDMPHVFQMYGKFVNAADISIKEICHWISARISKLAAALEHHHHHH | soluble
MSLRQGKIRVVLADDHTMFRQGLKEMLLTGGDIEVVGEAEDGRAALEEIRRHKPDVAILDVEMPEMDAREVMVRLPEASPHTRAVIVTVFAEARLARELVRLGARAYVTKNATLQELLAAVRSAARAAGGDNVLLAVPRGLIEGSGGPEGCELSERELEILLLVARGLSNRQVASELHLAEATVKRHLANVYAKLNVGSRGEAVRKALSKGWFTSRDVTEGHHHHHH | soluble
MSLTQIQPGVEKFIKDFNDAKKKGEHAYDMTLSYQNFDKGFFNSRFQMQMTFDNGAPDLNIKPGQKVVFDVDVEHGPLPITMLMHGNVIPALAAAKVNLVNNELTQPLFIAAKNKSPVEATLRFAFGGSFSTTLDVAPAEYGKFSFGEGQFTFNGDGSSLSNLDIEGKVEDIVLQLSPMNKVTAKSFTIDSLARLEEKKFPVGESESKFNQINIINHGEDVAQIDAFVAKTRLDRVKDKDYINVNLTYELDKLTKGNQQLGSGEWSLIAESIDPSAVRQFIIQYNIAMQKQLAAHPELANDEVALQEVNAALFKEYLPLLQKSEPTIKQPVRWKNALGELNANLDISIADPAKSSSSTNKDIKSLNFDVKLPLNVVTETAKQLNLSEGMDAEKAQKQADKQISGMMTLGQMFQLITIDNNTASLQLRYTPGKVVFNGQEMSEEEFMSRAGRFVHEGHHHHHH | not soluble
MGSDKIHHHHHHMTAYNNNAIYFKNIASGSKGNSTFIWDAHDLIVIDFGITMKKFKEAISELTLGGLNKSIFISHEHADHVSGIRSVKKVDGADVYTRPATAEAANIKAYEIDNEVVIGNFEILAFDVPHDAADPVAFTVKWKDLKISVVSDLGTVTENVISNIRDSDILAFESNHDVSMLKTGRYPASLKRRILSQHGHLSNEQSAEAISKAINESTEIVLTHLSQENNKPEIALNEVKSYLKNRDIKYKDVECADQYVGSSLKSLKT | not soluble
DSLDEQRSRYAQIKQAWDNRQMDVVEQMMPGLKDYPLYPYLEYRQITDDLMNQPAVTVTNFVRANPTLPPARTLQSRFVNELARREDWRGLLAFSPEKPGTTEAQCNYYYAKWNTGQSEEAWQGAKELWLTGKSQPNACDKLFSVWRASGKQDPLAYLERIRLAMKAGNTGLVTVLAGQMPADYQTIASAIISLANNPNTVLTFARTTGATDFTRQMAAVAFASVARQDAENARLMIPSLAQAQQLNEDQIQELRDIVAWRLMGNDVTDEQAKWRDDAIMRSQSTSLIERRVRMALGTGDRRGLNTWLARLPMEAKEKDEWRYWQADLLLERGREAEAKEILHQLMQQRGFYPMVAAQRIGEEYELKIDKAPQNVDSALTQGPEMARVRELMYWNLDNTARSEWANLVKSKSKTEQAQLARYAFNNQWWDLSVQATIAGKLWDHLEERFPLAYNDLFKRYTSGKEIPQSYAMAIARQESAWNPKVKSPVGASGLMQIMPGTATHTVKMFSIPGYSSPGQLLDPETNINIGTSYLQYVYQQFGNNRIFSSAAYNAGPGRVRTWLGNSAGRIDAVAFVESIPFSETRGYVKNVLAYDAYYRYFMGDKPTLMSATEWGRRY | soluble
MGSDKIHHHHHHMLEEGEHVLVAVSGGIDSMTLLYVLRKFSPLLKIKITAAHLDHRIRESSRRDREFVERICRQWNIPVETSEVDVPSLWKDSGKTLEEIAREVRYDFLKRTAKKVGASKIALAHHKNDLLETVVHRLIRGTGPLGLACISPKREEFIRPFLVFKRSEIEEYARKNNVPYVVDETNYNVKYTRNFIRHRIVPLMKELNPTVEDAVYRLVSVTHLLRNFVERTVQDFVERNVYFYKDYAVFVEPEDLFLFLEVTRWVLKEMYGRVPEYEKLIGTLKSKRVELWSGIFVERSFGYVAVGKTVFKKKYRVEVKGDMLEMEGFKIRVVNNRNDMKFWVRNRKEGDRIIVNGRERKLKDVFIEKKVPTFYRDRVPLLVDEEDRVLWVPGIARSDFLPEDVVVELLEYPVGYVKGGTYFEQV | not soluble
MSLRDKQKIKTKLIPEKDEGEGKYRIGLYIRDSAAGIGTMTFYEPKTKKYGALGHVISDMDTKKPIVVENGEIVKSTVTSIEKGTGGNPGEKLARFSSERKTIGDINRNSPFGIFGTLHQPIQNNISDQALPVAFSTEVKKGPAEILTVIDDDKVEKFDIEIVSTTPQKFPATKGMVLKITDPRLLKETGGIVQGMSGSPIIQNGKVIGAVTHVFVNDPTSGYGVHIEWMLSEAGIDIYGKEKASEGHHHHHH | soluble
MKLCFNEATTLENSNLKLDLELCEKHGYDYIEIRTMDKLPEYLKDHSLDDLAEYFQTHHIKPLALNALVFFNNRDEKGHNEIITEFKGMMETCKTLGVKYVVAVPLVTEQKIVKEEIKKSSVDVLTELSDIAEPYGVKIALEFVGHPQCTVNTFEQAYEIVNTVNRDNVGLVLDSFHFHAMGSNIESLKQADGKKIFIYHIDDTEDFPIGFLTDEDRVWPGQGAIDLDAHLSALKEIGFSDVVSVELFRPEYYKLTAEEAIQTAKKTTVDVVSKYFSMLEHHHHHH | soluble
MGSDKIHHHHHHMSSSQQIAKNARKAGNILKTISNEGRSDILYKIHDALKANAHAIEEANKIDLAVAKETGLADSLLKRLDLFKGDKFEVMLQGIKDVAELEDPVGKVKMARELDDGLTLYQVTAPVGVLLVIFESRPEVIANITALSIKSGNAAILKGGKESVNTFREMAKIVNDTIAQFQSETGVPVGSVQLIETRQDVSDLLDQDEYIDLVVPRGSNALVRKIKDTTKIPVLGHADGICSIYLDEDADLIKAKRISLDAKTNYPAGCNAMETLLINPKFSKWWEVLENLTLEGGVTIHATKDLKTAYFDKLNELGKLTEAIQCKTVDADEEQDFDKEFLSLDLAAKFVTSTESAIQHINTHSSRHTDAIVTENKANAEKFMKGVDSSGVYWNASTRFADGFRYGFGAEVGISTSKIHARGPVGLDGLVSYQYQIRG | not soluble

From the DeepSol protein solubility set
